Assay results from article doi:10.1101/2021.05.01.442282 (bioRxiv, 2021).

Target: monomeric recombinant human ASC (Apoptosis-associated speck-like protein containing a caspase recruitment … (human, UniProt Q9ULZ3 1-195))
Test: limited proteolysis-coupled mass spectrometry

Chain of monomeric recombinant human ASC (Apoptosis-associated speck-like protein containing a caspase recruitment … (Q9ULZ3 whole entry): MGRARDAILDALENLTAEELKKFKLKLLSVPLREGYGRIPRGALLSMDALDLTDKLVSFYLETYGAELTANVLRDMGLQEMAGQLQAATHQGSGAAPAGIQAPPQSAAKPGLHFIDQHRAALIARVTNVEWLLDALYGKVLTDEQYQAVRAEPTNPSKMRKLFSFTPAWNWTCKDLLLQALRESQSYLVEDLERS

binding result: binds
B1: monomeric recombinant human SAA1 (serum amyloid A1) (natural protein, UniProt P0DJI8 19-122, looked up)
chain: RSFFSFLGEAFDGARDMWRAYSDMREANYIGSDKYFHARGNYDAAKRGPGGAWAAEVITDARENIQRFFGHGAEDSLADQAANEWGRSGKDPNHFRPAGLPEKY
